In patent publication US20220062405A1:

Experiments:
[1] = molecular target: FcRn (human) (UniProt P55899)
[2] = molecular target: FcγRI (CD64) (human) (UniProt P12314)
[3] = molecular target: FcγRIIIa (CD16a) (human) (UniProt P08637)
[4] = molecular target: FcγRIIa (CD32a) (human) (UniProt P12318)
[5] = molecular target: FcγRIIb/c (CD32b/c) (human) (UniProt P31994)
[6] = molecular target: diphtheria toxin (target of Diphteria antitoxin) (UniProt P00588); experiment: specific antibody content of the polyclonal IgG preparation; assay not described
Chain of UniProt P00588 (P00588 33-567 limits assumed): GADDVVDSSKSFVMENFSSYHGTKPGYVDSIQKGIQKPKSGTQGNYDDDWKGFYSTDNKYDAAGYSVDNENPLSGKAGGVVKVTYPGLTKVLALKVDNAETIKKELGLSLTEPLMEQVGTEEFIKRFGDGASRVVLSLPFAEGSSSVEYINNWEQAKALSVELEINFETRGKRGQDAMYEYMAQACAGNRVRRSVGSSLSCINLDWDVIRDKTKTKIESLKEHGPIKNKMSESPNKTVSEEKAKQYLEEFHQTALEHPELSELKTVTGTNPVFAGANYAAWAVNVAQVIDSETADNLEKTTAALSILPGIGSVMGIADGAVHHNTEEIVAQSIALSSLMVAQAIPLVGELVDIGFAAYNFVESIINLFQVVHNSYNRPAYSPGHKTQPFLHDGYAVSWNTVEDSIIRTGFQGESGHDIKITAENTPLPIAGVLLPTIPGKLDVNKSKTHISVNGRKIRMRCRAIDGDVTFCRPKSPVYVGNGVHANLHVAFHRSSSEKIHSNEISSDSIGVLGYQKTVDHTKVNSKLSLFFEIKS

[7] = molecular target: parvovirus antigen (target of Parvovirus-Ab); experiment: as above

Substance: IgG (Hizentra) (antibody)
- Kd [1]: 1 nM
- koff [1]: 0.0025 s⁻¹
- kon [1]: 2.5e+06 M⁻¹ s⁻¹
- Kd [2]: 19.7 nM
- koff [2]: 0.0017 s⁻¹
- kon [2]: 87000 M⁻¹ s⁻¹
- Kd [3]: 496 nM
- koff [3]: 0.036 s⁻¹
- kon [3]: 73000 M⁻¹ s⁻¹
- Kd [4]: 213 nM
- koff [4]: 0.055 s⁻¹
- kon [4]: 260000 M⁻¹ s⁻¹
- Kd [5]: 2700 nM
- Diphteria antitoxin (IU/mL) [6]: 18.1 IU/mL
- Parvovirus-Ab (IU/mL) ([7]; original Hizentra formulation): 595 IU/mL
- Parvovirus-Ab (IU/mL) ([7]; re-formulated Hizentra): 509 IU/mL
